The source of these data is US20110165066A1 (AbbVie / Abbott, published 2011).

The target of assay [1] is T1, human IL-13 wild type (human, UniProt P35225 35-146).
T1 construct: also called h IL-13; h IL-13 wt
Description: SPR (Biacore), mAb captured, IL-13 as analyte. A general note: SPR reads the build-up and loss of mass on a sensor chip optically.

Assay [2] deals with T2, human IL-13 variant (R130Q) (human, UniProt P35225 35-146).
T2 construct: called R110Q in the assay descriptions (mature numbering); also called h IL-13v; hIL-13v
T2 sequence (P35225 35-146 limits assumed, stated change not applied): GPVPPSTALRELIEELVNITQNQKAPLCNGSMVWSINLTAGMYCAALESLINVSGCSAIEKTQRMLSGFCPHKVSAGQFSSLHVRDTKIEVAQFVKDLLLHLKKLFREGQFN
Nature of the assay: SPR (Biacore), mAb captured, IL-13 as analyte.

The target of assay [3] is T3, mouse IL-13 (mouse, UniProt P20109 26-131, limits assumed).
T3 construct: also called mIL-13; murine IL-13
T3 sequence (looked up): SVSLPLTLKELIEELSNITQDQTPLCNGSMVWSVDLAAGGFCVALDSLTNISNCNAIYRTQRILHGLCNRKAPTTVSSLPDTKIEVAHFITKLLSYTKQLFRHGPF
Description: indirect ELISA, captured mAb, biotinylated mouse IL-13.

Assay [4] concerns the target T1, human IL-13 wild type. Description: cell-based or functional assay.
Assay [5] concerns the target cynomolgus IL-13 (cynomolgus, UniProt Q0PW92 21-132). Description: cell-based or functional assay.
Assay [6] concerns the target T2, human IL-13 variant (R130Q). Description: cell-based or functional assay.
For assay [7], the target named is T1, human IL-13 wild type. Description: blocking of IL-13 binding to IL-13Rα2, receptor binding assays.

T1 sequence (P35225 other isoform, or with tags, fused parts or gaps limits assumed): as the sequence (P35225 35-146 limits assumed, stated change not applied) above, with Q110R counted along it
cynomolgus IL-13, sequence (Q0PW92 entry or part of it): as the sequence (P35225 35-146 limits assumed, stated change not applied) above, with G1S, R10K, M42V, S67N, H83R, L100V counted along it

B1: 9C11 (antibody, V domains shown)
VH: QVRLQQPGAELVRPGASVKLSCKASGYTFTSSWIHWVNQRPGQGLEWIGMIHPSDSETRLNQKFKDKATLTVDKSSSTAYMQLSSPTSEDSAVYYCASTATDFDYWGQGTTLTVSS
VL: DVVLTQTPLSLPVNIGDQASISCRSTQTLLNSDGFTYLDWYLQKPGQSPQLLIYLVSNRFSGVPDRFSGSGSGTDFTLKISRVEAEDLGVYYCFQNNYLPLTFGAGTKLELKR
Broadly, the Kd is the free concentration of one partner at which half of the binding sites on the other are occupied at equilibrium, for simple one-to-one binding. As usually defined, the koff is the first-order rate constant of dissociation. Read a low koff as a long-lived complex. As a reminder, the kon is a measure of how fast the partners come together. Lower therefore signals slow association. The term IC50 denotes the concentration that inhibits the measured activity by half. Higher therefore signals lower potency. On to B1, for which the dissociation constant Kd is 0.112 nM in assay [1] and 0.0921 nM in assay [2]. In addition, the koff in assay [1] came out at 6.5e-05 s⁻¹; in assay [2] it was 5.86e-05 s⁻¹. For the same molecule, the kon in assay [1] came to 579000 M⁻¹ s⁻¹; in assay [2], 637000 M⁻¹ s⁻¹. The binding result in assay [3] was “no binding (tested: 0.1 to 100 ng/ml)”. Moreover, the figures for the “Average IC50, IL-13-induced TARC production by A-549 cells” value in assay [4], in assay [5] and in assay [6] were 0.106 nM, 0.64 nM and 0.17 nM, respectively. Besides, the IC50 in assay [7] was > 10 nM.
